The source of these data is publication PMC11293870.

The target in the experiment is T1, LKB1-3xFlag (pcDNA3.1-LKB1-3xFlag) (human) (UniProt Q15831).
T1 sequence: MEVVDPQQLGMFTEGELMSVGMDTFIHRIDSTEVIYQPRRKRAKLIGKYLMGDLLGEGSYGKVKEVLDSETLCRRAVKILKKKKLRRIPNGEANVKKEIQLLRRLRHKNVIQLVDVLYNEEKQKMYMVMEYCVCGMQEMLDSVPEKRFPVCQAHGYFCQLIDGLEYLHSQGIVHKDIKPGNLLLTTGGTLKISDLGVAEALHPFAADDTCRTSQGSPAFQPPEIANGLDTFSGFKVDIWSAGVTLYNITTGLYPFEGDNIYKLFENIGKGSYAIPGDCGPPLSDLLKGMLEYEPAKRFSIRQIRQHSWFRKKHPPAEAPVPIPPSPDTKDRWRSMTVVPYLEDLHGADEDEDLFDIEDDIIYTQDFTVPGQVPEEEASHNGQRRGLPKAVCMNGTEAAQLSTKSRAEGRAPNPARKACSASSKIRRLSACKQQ

B1: STRADα-KinCon (pcDNA3.1-F[1]-STRADα-F[2]) (natural protein)
chain: MSFLVSKPERIRRWVSEKFIVEGLRDLELFGEQPPGDTRRKTNDASSESIASFSKQEVMSSFLPEGGCYELLTVIGKGFEDLMTVNLARYKPTGEYVTVRRINLEACSNEMVTFLQGELHVSKLFNHPNIVPYRATFIADNELWVVTSFMAYGSAKDLICTHFMDGMNELAIAYILQGVLKALDYIHHMGYVHRSVKASHILISVDGKVYLSGLRSNLSMISHGQRQRVVHDFPKYSVKVLPWLSPEVLQQNLQGYDAKSDIYSVGITACELANGHVPFKDMPATQMLLEKLNGTVPCLLDTSTIPAEELTMSPSRSVANSGLSDSLTTSTPRPSNGDSPSHPYHRTFSPHFHHFVEQCLQRNPDARPSASTLLNHSFFKQIKRRASEALPELLRPVTPITNFEGSQSQDHSGIFGLVTNLEELEVDDWEF
As to B1, the STRADα KinCon reporter bioluminescence (intramolecular RLuc PCA, closing of the conformation) on co-expression of LKB1 and MO25; HEK293T, 48 hr of expression (also HeLa and SW480) is > 10 fold.
